We go through two molecules from patent US20200331965A1 (EMORY UNIVERSITY, published 2020).

The target of test [1] is zonula occludens 1 (rat alveolar epithelial cells) (rat). The experiment in a line: STORM co-localization, untransduced rat AECs.
Test [2] shares this target. The experiment in a line: STORM co-localization, rat AECs without YFP-claudin-5.
Test [3] has the same target. Nature of the test: STORM co-localization, rat AECs transduced with YFP-claudin-5.
Test [4] addresses T1, zonula occludens 1 (rat alveolar epithelial cells) (rat, UniProt A0A0G2K2P5 1-1765).
T1 construct: Endogenous cytoplasmic protein within primary rat AECs (not a surface protein); also called ZO-1
Nature of the test: STORM co-localization in rat AECs (FIG. 4C).

Chain of zonula occludens 1 (rat alveolar epithelial cells) (rat) (A0A0G2 entry or part of it limits assumed): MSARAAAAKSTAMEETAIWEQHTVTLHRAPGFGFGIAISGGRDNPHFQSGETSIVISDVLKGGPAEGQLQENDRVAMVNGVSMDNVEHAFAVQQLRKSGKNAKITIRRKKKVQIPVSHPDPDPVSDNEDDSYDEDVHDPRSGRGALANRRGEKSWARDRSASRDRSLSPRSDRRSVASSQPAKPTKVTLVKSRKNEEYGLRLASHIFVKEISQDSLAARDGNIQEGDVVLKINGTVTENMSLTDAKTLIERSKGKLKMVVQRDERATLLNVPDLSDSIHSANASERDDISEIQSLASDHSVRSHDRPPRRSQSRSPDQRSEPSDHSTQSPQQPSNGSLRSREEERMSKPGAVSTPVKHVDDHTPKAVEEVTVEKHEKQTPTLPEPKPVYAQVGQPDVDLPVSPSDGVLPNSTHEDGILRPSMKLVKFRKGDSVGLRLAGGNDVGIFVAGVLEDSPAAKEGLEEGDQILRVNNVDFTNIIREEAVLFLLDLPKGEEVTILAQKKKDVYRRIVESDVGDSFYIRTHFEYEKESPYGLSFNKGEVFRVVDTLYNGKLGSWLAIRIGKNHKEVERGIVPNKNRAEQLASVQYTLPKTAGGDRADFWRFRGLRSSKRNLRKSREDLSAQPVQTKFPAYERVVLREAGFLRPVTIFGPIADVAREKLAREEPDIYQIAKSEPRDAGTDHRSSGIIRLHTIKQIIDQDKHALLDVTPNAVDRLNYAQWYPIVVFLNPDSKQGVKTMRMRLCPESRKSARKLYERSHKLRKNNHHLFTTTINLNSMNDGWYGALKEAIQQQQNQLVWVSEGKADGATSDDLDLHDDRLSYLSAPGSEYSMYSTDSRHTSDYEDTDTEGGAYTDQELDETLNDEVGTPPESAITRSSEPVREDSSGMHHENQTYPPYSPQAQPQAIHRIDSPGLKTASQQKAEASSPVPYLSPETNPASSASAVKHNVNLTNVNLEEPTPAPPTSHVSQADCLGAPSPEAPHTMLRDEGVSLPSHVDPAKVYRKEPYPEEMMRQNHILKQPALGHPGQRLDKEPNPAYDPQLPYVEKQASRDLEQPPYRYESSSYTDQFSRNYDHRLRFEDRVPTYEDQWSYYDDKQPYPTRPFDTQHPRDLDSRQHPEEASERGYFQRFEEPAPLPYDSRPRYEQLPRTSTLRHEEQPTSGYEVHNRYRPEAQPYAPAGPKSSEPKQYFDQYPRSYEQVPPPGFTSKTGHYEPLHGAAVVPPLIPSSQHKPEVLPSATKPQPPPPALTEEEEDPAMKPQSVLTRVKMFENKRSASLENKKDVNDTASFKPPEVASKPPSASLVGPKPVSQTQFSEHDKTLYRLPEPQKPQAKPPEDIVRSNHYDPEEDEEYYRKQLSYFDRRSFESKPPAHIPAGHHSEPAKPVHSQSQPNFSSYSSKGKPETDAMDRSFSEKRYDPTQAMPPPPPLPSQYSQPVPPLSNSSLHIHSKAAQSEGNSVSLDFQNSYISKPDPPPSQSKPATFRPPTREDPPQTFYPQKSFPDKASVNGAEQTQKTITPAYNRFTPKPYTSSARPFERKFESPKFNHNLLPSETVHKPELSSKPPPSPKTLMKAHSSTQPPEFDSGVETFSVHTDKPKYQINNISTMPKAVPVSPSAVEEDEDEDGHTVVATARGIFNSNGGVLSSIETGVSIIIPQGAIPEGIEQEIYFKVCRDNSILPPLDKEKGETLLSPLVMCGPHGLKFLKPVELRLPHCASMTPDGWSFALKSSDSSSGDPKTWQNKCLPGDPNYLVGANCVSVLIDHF
T1 sequence (A0A0G2K2P5 whole entry): as the sequence (A0A0G2 entry or part of it limits assumed) above

Molecule “native claudin-18 (rat alveolar epithelial cells) (from UniProt Q5I0E5 1-261)” returned a co-localization index in test [1] of 30.5%. Also, the co-localization stood at 31% in test [2] and 16% in test [3].

B1: native claudin-5 (rat alveolar epithelial cells) (other, UniProt Q9JKD6 1-218, looked up)
chain: MGSAALEILGLVLCLVGWVGLILACGLPMWQVTAFLDHNIVTAQTTWKGLWMSCVVQSTGHMQCKVYESVLALSAEVQAARALTVGAVLLALVALFVTLTGAQCTTCVAPGPVKARVALTGGALYALCGLLALVPLCWFANIVVREFYDPTVPVSQKYELGAALYIGWAASALLMCGGGLVCCGAWVCTGRPEFSFPVKYSAPRRTTANGDYDKKNYV
notes: whole, on cells; Endogenous protein in primary rat AECs from control-fed or alcohol-fed rats; detected with antibodies (co-immunopurification, STORM, PLA); also called Cldn-5
For the molecule B1, the binding result in test [4] is reported as “binds”.
